From patent publication US20200079833A1 (AstraZeneca / MedImmune, published 2020)
Starred links: 1 amine or outer side, 2 acyl side, 3 side chain; linkers in the order of their positions; H or OH if unused. Non-standard residues stand in square brackets, D forms with d. Groups on a side chain read outwards from the residue. Primed or numbered codes have the meaning given here. No end group written: not given here. *: point of attachment. γGlu = O=C(O)[C@H](CCC(=O)[*:2])N[*:1]; Stearoyl = CCCCCCCCCCCCCCCCCC(=O)*; Palmitoyl = CCCCCCCCCCCCCCCC(=O)*; αMeF = C[C@](N)(Cc1ccccc1)C(=O)O; αMeK = C[C@](N)(CCCCN)C(=O)O; αMeS = C[C@](N)(CO)C(=O)O; PEG2′ = not defined here; Aib = CC(C)(N)C(=O)O

T1: GLP-1R (INS1e assay) (UniProt P32301 22-463, limits assumed)
T1 sequence (looked up): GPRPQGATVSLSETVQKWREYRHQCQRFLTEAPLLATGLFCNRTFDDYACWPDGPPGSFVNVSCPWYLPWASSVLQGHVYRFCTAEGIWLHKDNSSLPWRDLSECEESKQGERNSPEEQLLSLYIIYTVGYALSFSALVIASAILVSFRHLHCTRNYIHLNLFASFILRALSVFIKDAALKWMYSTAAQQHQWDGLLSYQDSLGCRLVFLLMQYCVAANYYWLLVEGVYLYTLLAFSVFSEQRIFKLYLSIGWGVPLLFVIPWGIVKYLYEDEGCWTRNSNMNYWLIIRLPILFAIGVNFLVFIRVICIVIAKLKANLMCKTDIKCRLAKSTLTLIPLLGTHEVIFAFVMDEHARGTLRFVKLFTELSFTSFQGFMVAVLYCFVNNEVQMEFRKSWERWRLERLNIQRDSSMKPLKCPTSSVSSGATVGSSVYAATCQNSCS


These binders were tested against T1, GLP-1R (INS1e assay) (assay: cell-based or functional assay).

Binder | INS1e assay EC50 GLP-1 R n1 [nM] | INS1e assay EC50 GLP-1 R n2 [nM] | INS1e assay EC50 Mean pM GLP-1R [pM]
H[Aib]EGS[αMeF]TSDV[αMeS]S[αMeF]LEGEAA[αMeK]E[αMeF]IA[αMeF]VVK([PEG2′-PEG2′-γGlu-Stearoyl])GG-NH2 [SEQ ID NO 101] | 1.47 | 6.65 | 4060
H[Aib]EGS[αMeF]TSDV[αMeS]S[αMeF]LEGEAAK([PEG2′-PEG2′-γGlu-Palmitoyl])E[αMeF]IA[αMeF]VV[αMeK]GG-NH2 [SEQ ID NO 109] | 8.35 | 4.32 | 6340
H[Aib]EGS[αMeF]TSDV[αMeS]S[αMeF]LEGEAA[αMeK]E[αMeF]IA[αMeF]K([PEG2′-PEG2′-γGlu-Stearoyl])V[αMeK]GG-NH2 [SEQ ID NO 103] | 0.428 | 0.59 | 509
H[Aib]EGS[αMeF]TSDV[αMeS]S[αMeF]LEGEAA[αMeK]K([PEG2′-PEG2′-γGlu-Stearoyl])[αMeF]IA[αMeF]VV[αMeK]GG-NH2 [SEQ ID NO 108] | 0.038 | 0.458 | 248
H[Aib]EGS[αMeF]TSDV[αMeS]SK([γGlu-Palmitoyl])LEGEAA[αMeK]E[αMeF]IA[αMeF]VV[αMeK]GG-NH2 (N-terminus assumed; SMILES CCCCCCCCCCCCCCCC(=O)N[C@@H](CCC(=O)NCCCC[C@H](NC(=O)[C@H](CO)NC(=O)[C@](C)(CO)NC(=O)[C@@H](NC(=O)[C@H](CC(=O)O)NC(=O)[C@H](CO)NC(=O)[C@@H](NC(=O)[C@](C)(Cc1ccccc1)NC(=O)[C@H](CO)NC(=O)CNC(=O)[C@H](CCC(=O)O)NC(=O)C(C)(C)NC(=O)[C@@H](N)Cc1c[nH]cn1)[C@@H](C)O)C(C)C)C(=O)N[C@@H](CC(C)C)C(=O)N[C@@H](CCC(=O)O)C(=O)NCC(=O)N[C@@H](CCC(=O)O)C(=O)N[C@@H](C)C(=O)N[C@@H](C)C(=O)N[C@@](C)(CCCCN)C(=O)N[C@@H](CCC(=O)O)C(=O)N[C@@](C)(Cc1ccccc1)C(=O)N[C@H](C(=O)N[C@@H](C)C(=O)N[C@@](C)(Cc1ccccc1)C(=O)N[C@H](C(=O)N[C@H](C(=O)N[C@@](C)(CCCCN)C(=O)NCC(=O)NCC(N)=O)C(C)C)C(C)C)[C@@H](C)CC)C(=O)O) [SEQ ID NO 87] | 0.0436 | 0.0622 | 53
H[Aib]EGS[αMeF]TSDV[αMeS]S[αMeF]LEGEAA[αMeK]EK([PEG2′-PEG2′-γGlu-Stearoyl])IA[αMeF]VV[αMeK]GG-NH2 [SEQ ID NO 107] | 5.23 | 11.7 | 8460
H[Aib]EGS[αMeF]TSDV[αMeS]S[αMeF]LEGK([PEG2′-PEG2′-γGlu-Stearoyl])AA[αMeK]E[αMeF]IA[αMeF]VV[αMeK]GG-NH2 [SEQ ID NO 112] | 0.294 | 0.476 | 385
H[Aib]EGS[αMeF]TSDV[αMeS]S[αMeF]LEK([PEG2′-PEG2′-γGlu-Stearoyl])EAA[αMeK]E[αMeF]IA[αMeF]VV[αMeK]GG-NH2 [SEQ ID NO 113] | 0.823 | 1.26 | 1040
H[Aib]EGS[αMeF]TSDV[αMeS]S[αMeF]LEGEK([PEG2′-PEG2′-γGlu-Stearoyl])A[αMeK]E[αMeF]IA[αMeF]VV[αMeK]GG-NH2 [SEQ ID NO 111] | 0.501 | 1.11 | 806
H[Aib]EGS[αMeF]TSDV[αMeS]S[αMeF]LEGEAK([PEG2′-PEG2′-γGlu-Stearoyl])[αMeK]E[αMeF]IA[αMeF]VV[αMeK]GG-NH2 [SEQ ID NO 110] | 31.6 | 23.1 | 27400
H[Aib]EGS[αMeF]TSDK([γGlu-Palmitoyl])[αMeS]S[αMeF]LEGEAA[αMeK]E[αMeF]IA[αMeF]VV[αMeK]GG-NH2 (N-terminus assumed; SMILES CCCCCCCCCCCCCCCC(=O)N[C@@H](CCC(=O)NCCCC[C@H](NC(=O)[C@H](CC(=O)O)NC(=O)[C@H](CO)NC(=O)[C@@H](NC(=O)[C@](C)(Cc1ccccc1)NC(=O)[C@H](CO)NC(=O)CNC(=O)[C@H](CCC(=O)O)NC(=O)C(C)(C)NC(=O)[C@@H](N)Cc1c[nH]cn1)[C@@H](C)O)C(=O)N[C@@](C)(CO)C(=O)N[C@@H](CO)C(=O)N[C@@](C)(Cc1ccccc1)C(=O)N[C@@H](CC(C)C)C(=O)N[C@@H](CCC(=O)O)C(=O)NCC(=O)N[C@@H](CCC(=O)O)C(=O)N[C@@H](C)C(=O)N[C@@H](C)C(=O)N[C@@](C)(CCCCN)C(=O)N[C@@H](CCC(=O)O)C(=O)N[C@@](C)(Cc1ccccc1)C(=O)N[C@H](C(=O)N[C@@H](C)C(=O)N[C@@](C)(Cc1ccccc1)C(=O)N[C@H](C(=O)N[C@H](C(=O)N[C@@](C)(CCCCN)C(=O)NCC(=O)NCC(N)=O)C(C)C)C(C)C)[C@@H](C)CC)C(=O)O) [SEQ ID NO 90] | 0.0434 | 0.0586 | 51
H[Aib]EGS[αMeF]TSDV[αMeS]S[αMeF]LEGEAA[αMeK]E[αMeF]IA[αMeF]VV[αMeK]K([PEG2′-PEG2′-γGlu-Stearoyl])G-NH2 [SEQ ID NO 100] | 0.233 | 1.41 | 822
H[Aib]EGS[αMeF]TSDV[αMeS]S[αMeF]LEGEAA[αMeK]E[αMeF]IAK([PEG2′-PEG2′-γGlu-Stearoyl])VV[αMeK]GG-NH2 [SEQ ID NO 104] | 0.391 | 0.27 | 331
H[Aib]EGS[αMeF]TSDV[αMeS]S[αMeF]LEGEAA[αMeK]E[αMeF]IA[αMeF]VV[αMeK]GK([PEG2′-PEG2′-γGlu-Stearoyl])-NH2 [SEQ ID NO 99] | 11 | 5.88 | 8440
HXEGSFTSDVSKFLEGEAAKEFIAFVVKGG (Aib2; α-MeF6; α-MeS11; K12(ε-γE-Palmitoyl); α-MeF13; α-MeK20; α-MeF22; α-MeF25; α-MeK28; C-terminal amide) [SEQ ID NO 88] | 0.277 | 0.415 | 346
H[Aib]EGS[αMeF]TSK([γGlu-Palmitoyl])V[αMeS]S[αMeF]LEGEAA[αMeK]E[αMeF]IA[αMeF]VV[αMeK]GG-NH2 (N-terminus assumed; SMILES CCCCCCCCCCCCCCCC(=O)N[C@@H](CCC(=O)NCCCC[C@H](NC(=O)[C@H](CO)NC(=O)[C@@H](NC(=O)[C@](C)(Cc1ccccc1)NC(=O)[C@H](CO)NC(=O)CNC(=O)[C@H](CCC(=O)O)NC(=O)C(C)(C)NC(=O)[C@@H](N)Cc1c[nH]cn1)[C@@H](C)O)C(=O)N[C@H](C(=O)N[C@@](C)(CO)C(=O)N[C@@H](CO)C(=O)N[C@@](C)(Cc1ccccc1)C(=O)N[C@@H](CC(C)C)C(=O)N[C@@H](CCC(=O)O)C(=O)NCC(=O)N[C@@H](CCC(=O)O)C(=O)N[C@@H](C)C(=O)N[C@@H](C)C(=O)N[C@@](C)(CCCCN)C(=O)N[C@@H](CCC(=O)O)C(=O)N[C@@](C)(Cc1ccccc1)C(=O)N[C@H](C(=O)N[C@@H](C)C(=O)N[C@@](C)(Cc1ccccc1)C(=O)N[C@H](C(=O)N[C@H](C(=O)N[C@@](C)(CCCCN)C(=O)NCC(=O)NCC(N)=O)C(C)C)C(C)C)[C@@H](C)CC)C(C)C)C(=O)O) [SEQ ID NO 91] | 1.93 | 3.5 | 2720
H[Aib]EGS[αMeF]TSDV[αMeS]S[αMeF]LEGEAA[αMeK]E[αMeF]IK([PEG2′-PEG2′-γGlu-Stearoyl])[αMeF]VV[αMeK]GG-NH2 [SEQ ID NO 105] | 0.22 | 1.72 | 970
H[Aib]EGS[αMeF]TSDV[αMeS]S[αMeF]LEGEAA[αMeK]E[αMeF]IA[αMeF]VK([PEG2′-PEG2′-γGlu-Stearoyl])[αMeK]GG-NH2 [SEQ ID NO 102] | 4.22 | 2.89 | 3560
